Test results published in patent publication US20230265151A1, “GIP/GLP1 CO-AGONIST COMPOUNDS” (priority 2020, published 2023).
*1 amine or outer side, *2 acyl side, *3 side chain or, on linkers, in order; H or OH if unused. Where no end group is shown, it is not given here. Side-chain parts run from the residue outwards. [ ]: non-standard residue; d: D form. The star is where a group is joined. Butanoyl(4-(4-tBuPh)) = CC(C)(C)c1ccc(CCCC(=O)*)cc1; γGlu = O=C(O)[C@H](CCC(=O)[*:2])N[*:1]; C14 diacid = O=C(O)CCCCCCCCCCCCC(=O)*; αMeY = C[C@](N)(Cc1ccc(O)cc1)C(=O)O; αMeF = C[C@](N)(Cc1ccccc1)C(=O)O; αMeL = CC(C)C[C@](C)(N)C(=O)O; Orn = NCCC[C@H](N)C(=O)O; AEEA = NCCOCCOCC(=O)O; Aib = CC(C)(N)C(=O)O

T1: human glucose-dependent insulinotropic polypeptide (GIP) receptor (human, UniProt P48546 22-466)
T1 sequence (looked up): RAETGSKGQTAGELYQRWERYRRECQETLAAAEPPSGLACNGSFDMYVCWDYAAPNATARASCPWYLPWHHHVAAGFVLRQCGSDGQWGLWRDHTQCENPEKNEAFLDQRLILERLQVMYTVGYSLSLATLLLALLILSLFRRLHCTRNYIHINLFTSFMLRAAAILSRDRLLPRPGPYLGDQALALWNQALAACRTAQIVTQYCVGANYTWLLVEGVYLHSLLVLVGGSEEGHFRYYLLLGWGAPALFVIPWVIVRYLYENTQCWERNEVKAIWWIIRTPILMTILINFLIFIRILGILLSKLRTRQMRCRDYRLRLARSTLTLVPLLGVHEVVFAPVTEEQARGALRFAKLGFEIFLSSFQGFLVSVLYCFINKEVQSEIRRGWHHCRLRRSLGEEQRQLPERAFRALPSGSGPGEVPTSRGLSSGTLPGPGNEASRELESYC

B1: Y-Aib-EGT-αMeF(2F)-TSD-4Pal-SI-αMeL-LD-Orn-K((2-[2-(2-Amino-ethoxy)-ethoxy]-acetyl)2-(εK)-(γ-Glu)-CO-(CH2)12-CO2H)AQ-Aib-EFI-(D-Glu)-αMeY-LIEGGK((2-[2-(2-Amino- … (peptide)
peptide: YXEGTXTSDXSIXLDXKAQXEFIXXLIEGGKSSGAPPPS
modifications: Aib2, αMeF(2F)6, 4Pal10, αMeL13, Orn16, Aib20, D-Glu24, αMeY25; acylated K17, K31 (groups as in name); C-terminal amide
B2: Y-Aib-EGT-αMeF(2F)-TSD-4Pal-SI-αMeL-LD-Orn-K((2-[2-(2-Amino-ethoxy)-ethoxy]-acetyl)2-(γ-Glu)-CO-(CH2)12-CO2H)AQ-Aib-EFI-(D-Glu)-αMeY-LIK((2-[2-(2-Amino-ethoxy)- … (peptide)
peptide: YXEGTXTSDXSIXLDXKAQXEFIXXLIKGGPSSGAPPPS
modifications: Aib2, αMeF(2F)6, 4Pal10, αMeL13, Orn16, Aib20, D-Glu24, αMeY25; acylated K17, K28 (groups as in name); C-terminal amide
B3: Y-Aib-EGT-αMeF(2F)-TSD-4Pal-SI-αMeL-LD-Orn-K((2-[2-(2-Amino-ethoxy)-ethoxy]-acetyl)2-(γ-Glu)-(10-(4-carboxyphenoxy)decanoyl))AQ-Aib-EFI-(D-Glu)-αMeY-LIEGGK((2-[ … (peptide)
peptide: YXEGTXTSDXSIXLDXKAQXEFIXXLIEGGKSSGAPPPS
modifications: Aib2, αMeF(2F)6, 4Pal10, αMeL13, Orn16, Aib20, D-Glu24, αMeY25; acylated K17, K31 (groups as in name); C-terminal amide
B4: Y-Aib-EGT-αMeF(2F)-TSD-4Pal-SI-αMeL-LD-Orn-K((2-[2-(2-Amino-ethoxy)-ethoxy]-acetyl)2-(γ-Glu)-CO-(CH2)14-CH3)AQ-Aib-K((2-[2-(2-Amino-ethoxy)-ethoxy]-acetyl)2-(γ- … (peptide)
peptide: YXEGTXTSDXSIXLDXKAQXKFIXXLIEGGPSSGAPPPS
modifications: Aib2, αMeF(2F)6, 4Pal10, αMeL13, Orn16, Aib20, D-Glu24, αMeY25; acylated K17, K21 (groups as in name); C-terminal amide
B5: Y-Aib-EGT-αMeF(2F)-TSD-4Pal-SI-αMeL-LD-Orn-K((2-[2-(2-Amino-ethoxy)-ethoxy]-acetyl)2-(γ-Glu)-CO-(CH2)12-CH3)AQ-Aib-EFI-(D-Glu)-αMeY-LIEGGK((2-[2-(2-Amino-ethoxy … (peptide)
peptide: YXEGTXTSDXSIXLDXKAQXEFIXXLIEGGKSSGAPPPS
modifications: Aib2, αMeF(2F)6, 4Pal10, αMeL13, Orn16, Aib20, D-Glu24, αMeY25; acylated K17, K31 (groups as in name); C-terminal amide
B6: Y-Aib-EGT-αMeF(2F)-TSD-4Pal-SI-αMeL-LD-Orn-K((εK)-(2-[2-(2-Amino-ethoxy)-ethoxy]-acetyl)2-(γ-Glu)-CO-(CH2)12-CO2H)AQ-Aib-EFI-(D-Glu)-αMeY-LIEGGK((εK)-(2-[2-(2-A … (peptide)
peptide: YXEGTXTSDXSIXLDXKAQXEFIXXLIEGGKSSGAPPPS
modifications: Aib2, αMeF(2F)6, 4Pal10, αMeL13, Orn16, Aib20, D-Glu24, αMeY25; acylated K17, K31 (groups as in name); C-terminal amide
B7: Y-Aib-EGT-αMeF(2F)-TSD-4Pal-SI-αMeL-LD-Orn-K((εK)-(γ-Glu)-CO-(CH2)12-CO2H)AQ-Aib-EFI-(D-Glu)-αMeY-LIEGGK((εK)-(γ-Glu)-CO-(CH2)12-CO2H)SSGAPPPS-NH2 (peptide)
peptide: YXEGTXTSDXSIXLDXKAQXEFIXXLIEGGKSSGAPPPS
modifications: Aib2, αMeF(2F)6, 4Pal10, αMeL13, Orn16, Aib20, D-Glu24, αMeY25; acylated K17, K31 (groups as in name); C-terminal amide
B8: Example 178 (peptide)
peptide: Y[Aib]EGT[αMeF]TSDV[Aib]I[αMeL]LD[Orn]K([AEEA-AEEA-γGlu-Butanoyl(4-(4-tBuPh))])AQ[Aib]EFI[dE][αMeY]LIEGGK([AEEA-AEEA-γGlu-Butanoyl(4-(4-tBuPh))])SSGAPPPS-NH2
modifications: N-terminus assumed
SMILES: CC[C@H](C)[C@H](NC(=O)[C@H](CC(C)C)NC(=O)[C@](C)(Cc1ccc(O)cc1)NC(=O)[C@@H](CCC(=O)O)NC(=O)[C@@H](NC(=O)[C@H](Cc1ccccc1)NC(=O)[C@H](CCC(=O)O)NC(=O)C(C)(C)NC(=O)[C@H](CCC(N)=O)NC(=O)[C@H](C)NC(=O)[C@H](CCCCNC(=O)COCCOCCNC(=O)COCCOCCNC(=O)CC[C@H](NC(=O)CCCc1ccc(C(C)(C)C)cc1)C(=O)O)NC(=O)[C@H](CCCN)NC(=O)[C@H](CC(=O)O)NC(=O)[C@H](CC(C)C)NC(=O)[C@](C)(CC(C)C)NC(=O)[C@@H](NC(=O)C(C)(C)NC(=O)[C@@H](NC(=O)[C@H](CC(=O)O)NC(=O)[C@H](CO)NC(=O)[C@@H](NC(=O)[C@](C)(Cc1ccccc1)NC(=O)[C@@H](NC(=O)CNC(=O)[C@H](CCC(=O)O)NC(=O)C(C)(C)NC(=O)[C@@H](N)Cc1ccc(O)cc1)[C@@H](C)O)[C@@H](C)O)C(C)C)[C@@H](C)CC)[C@@H](C)CC)C(=O)N[C@@H](CCC(=O)O)C(=O)NCC(=O)NCC(=O)N[C@@H](CCCCNC(=O)COCCOCCNC(=O)COCCOCCNC(=O)CC[C@H](NC(=O)CCCc1ccc(C(C)(C)C)cc1)C(=O)O)C(=O)N[C@@H](CO)C(=O)N[C@@H](CO)C(=O)NCC(=O)N[C@@H](C)C(=O)N1CCC[C@H]1C(=O)N1CCC[C@H]1C(=O)N1CCC[C@H]1C(=O)N[C@@H](CO)C(N)=O
B9: Example 180 (peptide)
peptide: Y[Aib]EGT[αMeF]TSDV[Aib]I[αMeL]LD[Orn]K([AEEA-AEEA-γGlu-C14 diacid])AQ[Aib]EFI[dE][αMeY]LIEGGK([AEEA-AEEA-γGlu-C14 diacid])SSGAPPPS-NH2
modifications: N-terminus assumed
SMILES: CC[C@H](C)[C@H](NC(=O)[C@H](CC(C)C)NC(=O)[C@](C)(Cc1ccc(O)cc1)NC(=O)[C@@H](CCC(=O)O)NC(=O)[C@@H](NC(=O)[C@H](Cc1ccccc1)NC(=O)[C@H](CCC(=O)O)NC(=O)C(C)(C)NC(=O)[C@H](CCC(N)=O)NC(=O)[C@H](C)NC(=O)[C@H](CCCCNC(=O)COCCOCCNC(=O)COCCOCCNC(=O)CC[C@H](NC(=O)CCCCCCCCCCCCC(=O)O)C(=O)O)NC(=O)[C@H](CCCN)NC(=O)[C@H](CC(=O)O)NC(=O)[C@H](CC(C)C)NC(=O)[C@](C)(CC(C)C)NC(=O)[C@@H](NC(=O)C(C)(C)NC(=O)[C@@H](NC(=O)[C@H](CC(=O)O)NC(=O)[C@H](CO)NC(=O)[C@@H](NC(=O)[C@](C)(Cc1ccccc1)NC(=O)[C@@H](NC(=O)CNC(=O)[C@H](CCC(=O)O)NC(=O)C(C)(C)NC(=O)[C@@H](N)Cc1ccc(O)cc1)[C@@H](C)O)[C@@H](C)O)C(C)C)[C@@H](C)CC)[C@@H](C)CC)C(=O)N[C@@H](CCC(=O)O)C(=O)NCC(=O)NCC(=O)N[C@@H](CCCCNC(=O)COCCOCCNC(=O)COCCOCCNC(=O)CC[C@H](NC(=O)CCCCCCCCCCCCC(=O)O)C(=O)O)C(=O)N[C@@H](CO)C(=O)N[C@@H](CO)C(=O)NCC(=O)N[C@@H](C)C(=O)N1CCC[C@H]1C(=O)N1CCC[C@H]1C(=O)N1CCC[C@H]1C(=O)N[C@@H](CO)C(N)=O

biological target: human glucagon receptor (human, UniProt P47871 26-477); assay: cell-based or functional assay

Binder | cAMP EC50 (1.0% HSA) [nM]
B1 | > 9950
B2 | > 9950
B3 | > 9950
B4 | > 9950
B5 | > 9950
B6 | > 9950
B7 | > 9950

biological target: T1, human glucose-dependent insulinotropic …; assay: cell-based or functional assay

Binder | cAMP EC50 [nM] | cAMP Emax [%]
B8 | 0.11 | 105
B9 | 0.224 | 86.8

biological target: human glucagon-like peptide-1 (GLP-1) receptor (human, UniProt P43220 24-463); assay: cell-based or functional assay

Binder | cAMP EC50 [nM]
B8 | 0.22
B9 | 0.26
